In patent US20250352667A1:
Blank lines part the entries; values can stand above or below the binder they belong to.

Assays:
[1] = target: KEAP1 (wild-type full-length), His-tagged (human) (UniProt Q14145); test: AlphaScreen; 4.8 nM FLAG-NRF2, 150 nM His-KEAP1; signal against NRF2 only; control for I86V
[2] = target: KEAP1 (wild-type full-length), His-tagged (human) (UniProt Q14145); test: AlphaScreen; 9.6 nM FLAG-NRF2, 150 nM His-KEAP1; wild type set to 100%
[3] = target: KEAP1 (wild-type full-length), His-tagged (human) (UniProt Q14145); test: AlphaScreen; 19.2 nM FLAG-NRF2, 150 nM His-KEAP1; Rep 1; control for I86V
[4] = target: KEAP1 (wild-type full-length), His-tagged (human) (UniProt Q14145); test: AlphaScreen; 76.8 nM FLAG-NRF2, 150 nM His-KEAP1; Rep 1; control for I28V
[5] = target: KEAP1 (wild-type full-length), His-tagged (human) (UniProt Q14145); test: AlphaScreen; 307.2 nM FLAG-NRF2, 150 nM His-KEAP1; signal against NRF2 only; control for I86V
[6] = target: KEAP1 (wild-type full-length), His-tagged (human) (UniProt Q14145); test: AlphaScreen; 38.4 nM FLAG-NRF2, 150 nM His-KEAP1; Rep 3; control for I86V
[7] = target: KEAP1 (wild-type full-length), His-tagged (human) (UniProt Q14145); test: AlphaScreen; NRF2 wt isoform 1 614.4 nM, KEAP1 150 nM; signal against NRF2-only control; control for Q75R
[8] = target: KEAP1 (wild-type full-length), His-tagged (human) (UniProt Q14145); test: AlphaScreen; FLAG-NRF2 wt isoform 1 19.2 nM, His-KEAP1 150 nM; Rep 3; positive control for I86V
[9] = target: KEAP1 (wild-type full-length), His-tagged (human) (UniProt Q14145); test: AlphaScreen; 38.4 nM FLAG-NRF2, 150 nM His-KEAP1; Rep 2; control for I28V
[10] = target: KEAP1 (wild-type full-length), His-tagged (human) (UniProt Q14145); test: AlphaScreen; 1228.8 nM FLAG-NRF2, 150 nM His-KEAP1; Rep 2; control for I86V
[11] = target: KEAP1 (wild-type full-length), His-tagged (human) (UniProt Q14145); test: AlphaScreen; 38.4 nM FLAG-NRF2, 150 nM His-KEAP1; Rep 1; control for I86V
[12] = target: KEAP1 (wild-type full-length), His-tagged (human) (UniProt Q14145); test: AlphaScreen; FLAG-NRF2 wt isoform 1 1228.8 nM, His-KEAP1 150 nM; Rep 2; positive control for Q75R
[13] = target: KEAP1 (wild-type full-length), His-tagged (human) (UniProt Q14145); test: AlphaScreen; 307.2 nM FLAG-NRF2, 150 nM His-KEAP1; Rep 2; control for I28V
[14] = target: KEAP1 (wild-type full-length), His-tagged (human) (UniProt Q14145); test: AlphaScreen; 9.6 nM FLAG-NRF2, 150 nM His-KEAP1; Repeat 1 (same value as in Table 26)
[15] = target: KEAP1 (wild-type full-length), His-tagged (human) (UniProt Q14145); test: AlphaScreen; FLAG-NRF2 wt isoform 1 9.6 nM, His-KEAP1 150 nM; Rep 1; positive control for Q75R
[16] = target: KEAP1 (wild-type full-length), His-tagged (human) (UniProt Q14145); test: AlphaScreen; NRF2 Q75R 19.2 nM, KEAP1 150 nM; relative to wild-type NRF2 isoform 1 (100 %)
[17] = target: KEAP1 (wild-type full-length), His-tagged (human) (UniProt Q14145); test: AlphaScreen; FLAG-NRF2 Q75R 153.6 nM, His-KEAP1 150 nM; Rep 2
[18] = target: KEAP1 (wild-type full-length), His-tagged (human) (UniProt Q14145); test: AlphaScreen; NRF2 Q75R 153.6 nM, KEAP1 150 nM; signal against NRF2-only control
[19] = target: KEAP1 (wild-type full-length), His-tagged (human) (UniProt Q14145); test: AlphaScreen; mean over 9.6, 19.2 and 38.4 nM NRF2 Q75R, KEAP1 150 nM; relative to wild-type NRF2 isoform 1
[20] = target: KEAP1 (wild-type full-length), His-tagged (human) (UniProt Q14145); test: AlphaScreen; FLAG-NRF2 Q75R 76.8 nM, His-KEAP1 150 nM; Rep 2
[21] = target: KEAP1 (wild-type full-length), His-tagged (human) (UniProt Q14145); test: AlphaScreen; NRF2 Q75R 9.6 nM, KEAP1 150 nM; signal against NRF2-only control
[22] = target: KEAP1 (wild-type full-length), His-tagged (human) (UniProt Q14145); test: AlphaScreen; FLAG-NRF2 Q75R 1228.8 nM, His-KEAP1 150 nM; Rep 1
[23] = target: KEAP1 (wild-type full-length), His-tagged (human) (UniProt Q14145); test: AlphaScreen; FLAG-NRF2 Q75R 38.4 nM, His-KEAP1 150 nM; Rep 2
[24] = target: KEAP1 (wild-type full-length), His-tagged (human) (UniProt Q14145); test: AlphaScreen; FLAG-NRF2 I86V 4.8 nM, His-KEAP1 150 nM; Rep 1
[25] = target: KEAP1 (wild-type full-length), His-tagged (human) (UniProt Q14145); test: AlphaScreen; NRF2 I86V 19.2 nM, KEAP1 150 nM; signal against NRF2-only control
[26] = target: KEAP1 (wild-type full-length), His-tagged (human) (UniProt Q14145); test: AlphaScreen; 9.6 nM FLAG-NRF2, 150 nM His-KEAP1; against wild-type NRF2 isoform 1 = 100%
[27] = target: KEAP1 (wild-type full-length), His-tagged (human) (UniProt Q14145); test: AlphaScreen; 1228.8 nM FLAG-NRF2, 150 nM His-KEAP1; Rep 1

Sequence of KEAP1 (wild-type full-length), His-tagged (human) (Q14145 2-624 limits assumed): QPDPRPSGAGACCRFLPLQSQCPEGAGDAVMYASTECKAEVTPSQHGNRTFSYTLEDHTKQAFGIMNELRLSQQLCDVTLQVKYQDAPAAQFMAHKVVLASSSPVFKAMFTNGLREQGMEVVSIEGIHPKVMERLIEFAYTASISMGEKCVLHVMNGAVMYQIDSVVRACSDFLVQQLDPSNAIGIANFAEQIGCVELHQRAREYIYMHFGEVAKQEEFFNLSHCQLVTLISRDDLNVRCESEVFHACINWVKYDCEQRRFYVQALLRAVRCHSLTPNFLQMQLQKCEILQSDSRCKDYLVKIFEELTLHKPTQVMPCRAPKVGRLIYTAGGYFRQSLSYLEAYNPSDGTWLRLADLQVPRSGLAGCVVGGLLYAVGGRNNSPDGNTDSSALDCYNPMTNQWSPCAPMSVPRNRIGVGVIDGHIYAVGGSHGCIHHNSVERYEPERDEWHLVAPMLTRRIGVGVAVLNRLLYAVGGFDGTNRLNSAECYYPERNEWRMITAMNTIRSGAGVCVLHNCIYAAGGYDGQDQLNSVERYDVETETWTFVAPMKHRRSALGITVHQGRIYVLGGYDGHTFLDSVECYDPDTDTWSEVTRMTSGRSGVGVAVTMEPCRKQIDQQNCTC

S/N [1]: 2.8 | Binding Percentage (%) [2]: 100% | A-counts [3]: 3300 A-counts | A-counts [4]: 2000 A-counts | S/N [5]: 1.5 | A-counts [6]: 3130 A-counts | S/N [7]: 1 | A-counts (NRF2 plus KEAP1) [8]: 3040 A-counts | A-counts [9]: 1900 A-counts | A-counts [10]: 2770 A-counts | A-counts [11]: 3100 A-counts | A-counts (NRF2 plus KEAP1) [12]: 1360 A-counts | A-counts [13]: 1780 A-counts | A-counts [14]: 1590 A-counts | A-counts (NRF2 plus KEAP1) [15]: 1024 A-counts
B1: NRF2 isoform 1 (wild-type full-length), FLAG-tagged (protein)
chain: MMDLELPPPGLPSQQDMDLIDILWRQDIDLGVSREVFDFSQRRKEYELEKQKKLEKERQEQLQKEQEKAFFAQLQLDEETGEFLPIQPAQHIQSETSGSANYSQVAHIPKSDALYFDDCMQLLAQTFPFVDDNEVSSATFQSLVPDIPGHIESPVFIATNQAQSPETSVAQVAPVDLDGMQQDIEQVWEELLSIPELQCLNIENDKLVETTMVPSPEAKLTEVDNYHFYSSIPSMEKEVGNCSPHFLNAFEDSFSSILSTEDPNQLTVNSLNSDATVNTDFGDEFYSAFIAEPSISNSMPSPATLSHSLSELLNGPIDVSDLSLCKAFNQNHPESTAEFNDSDSGISLNTSPSVASPEHSVESSSYGDTLLGLSDSEVEELDSAPGSVKQNGPKTPVHSSGDMVQPLSPSQGQSTHVHDAQCENTPEKELPVSPGHRKTPFTKDKHSSRLEAHLTRDELRAKALHIPFPVEKIINLPVVDFNEMMSKEQFNEAQLALIRDIRRRGKNKVAAQNCRKRKLENIVELEQDLDHLKDEKEKLLKEKGENDKSLHLLKKQLSTLYLEVFSMLRDEDGKPYSPSEYSLQQTRDGNVFLVPKSKKPDVKKN

Binding Percentage [16]: 63.7% | A-counts (NRF2 plus KEAP1) [17]: 991 A-counts | S/N [18]: 1.5 | Average Binding [19]: 69.8% | Avg. Reduction in Binding [19]: 30.2% | A-counts (NRF2 plus KEAP1) [20]: 1150 A-counts | S/N [21]: 2.4 | A-counts (NRF2 plus KEAP1) [22]: 705 A-counts | A-counts (NRF2 plus KEAP1) [23]: 1280 A-counts
B2: NRF2 isoform 1 (Q75R full-length), FLAG-tagged (protein)
chain: MMDLELPPPGLPSQQDMDLIDILWRQDIDLGVSREVFDFSQRRKEYELEKQKKLEKERQEQLQKEQEKAFFAQLRLDEETGEFLPIQPAQHIQSETSGSANYSQVAHIPKSDALYFDDCMQLLAQTFPFVDDNEVSSATFQSLVPDIPGHIESPVFIATNQAQSPETSVAQVAPVDLDGMQQDIEQVWEELLSIPELQCLNIENDKLVETTMVPSPEAKLTEVDNYHFYSSIPSMEKEVGNCSPHFLNAFEDSFSSILSTEDPNQLTVNSLNSDATVNTDFGDEFYSAFIAEPSISNSMPSPATLSHSLSELLNGPIDVSDLSLCKAFNQNHPESTAEFNDSDSGISLNTSPSVASPEHSVESSSYGDTLLGLSDSEVEELDSAPGSVKQNGPKTPVHSSGDMVQPLSPSQGQSTHVHDAQCENTPEKELPVSPGHRKTPFTKDKHSSRLEAHLTRDELRAKALHIPFPVEKIINLPVVDFNEMMSKEQFNEAQLALIRDIRRRGKNKVAAQNCRKRKLENIVELEQDLDHLKDEKEKLLKEKGENDKSLHLLKKQLSTLYLEVFSMLRDEDGKPYSPSEYSLQQTRDGNVFLVPKSKKPDVKKN

A-counts (NRF2 plus KEAP1) [24]: 2170 A-counts | S/N [25]: 4
B3: NRF2 isoform 1 (I86V full-length), FLAG-tagged (protein)
chain: MMDLELPPPGLPSQQDMDLIDILWRQDIDLGVSREVFDFSQRRKEYELEKQKKLEKERQEQLQKEQEKAFFAQLQLDEETGEFLPVQPAQHIQSETSGSANYSQVAHIPKSDALYFDDCMQLLAQTFPFVDDNEVSSATFQSLVPDIPGHIESPVFIATNQAQSPETSVAQVAPVDLDGMQQDIEQVWEELLSIPELQCLNIENDKLVETTMVPSPEAKLTEVDNYHFYSSIPSMEKEVGNCSPHFLNAFEDSFSSILSTEDPNQLTVNSLNSDATVNTDFGDEFYSAFIAEPSISNSMPSPATLSHSLSELLNGPIDVSDLSLCKAFNQNHPESTAEFNDSDSGISLNTSPSVASPEHSVESSSYGDTLLGLSDSEVEELDSAPGSVKQNGPKTPVHSSGDMVQPLSPSQGQSTHVHDAQCENTPEKELPVSPGHRKTPFTKDKHSSRLEAHLTRDELRAKALHIPFPVEKIINLPVVDFNEMMSKEQFNEAQLALIRDIRRRGKNKVAAQNCRKRKLENIVELEQDLDHLKDEKEKLLKEKGENDKSLHLLKKQLSTLYLEVFSMLRDEDGKPYSPSEYSLQQTRDGNVFLVPKSKKPDVKKN

Binding Percentage (%) [26]: 77.6% | A-counts [27]: 995 A-counts
B4: NRF2 isoform 1 (I28V full-length), FLAG-tagged (protein)
chain: MMDLELPPPGLPSQQDMDLIDILWRQDVDLGVSREVFDFSQRRKEYELEKQKKLEKERQEQLQKEQEKAFFAQLQLDEETGEFLPIQPAQHIQSETSGSANYSQVAHIPKSDALYFDDCMQLLAQTFPFVDDNEVSSATFQSLVPDIPGHIESPVFIATNQAQSPETSVAQVAPVDLDGMQQDIEQVWEELLSIPELQCLNIENDKLVETTMVPSPEAKLTEVDNYHFYSSIPSMEKEVGNCSPHFLNAFEDSFSSILSTEDPNQLTVNSLNSDATVNTDFGDEFYSAFIAEPSISNSMPSPATLSHSLSELLNGPIDVSDLSLCKAFNQNHPESTAEFNDSDSGISLNTSPSVASPEHSVESSSYGDTLLGLSDSEVEELDSAPGSVKQNGPKTPVHSSGDMVQPLSPSQGQSTHVHDAQCENTPEKELPVSPGHRKTPFTKDKHSSRLEAHLTRDELRAKALHIPFPVEKIINLPVVDFNEMMSKEQFNEAQLALIRDIRRRGKNKVAAQNCRKRKLENIVELEQDLDHLKDEKEKLLKEKGENDKSLHLLKKQLSTLYLEVFSMLRDEDGKPYSPSEYSLQQTRDGNVFLVPKSKKPDVKKN
